Results reported in the nanobody polyreactivity screen of Harvey et al. (2022).

Assay: yeast display, Sf9 membrane polyspecificity reagent, FACS + sequencing; frameworks hold sequencing errors
Method in brief: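 In a synthetic yeast display library (Saccharomyces cerevisiae BJ5465), nanobody expression was induced with galactose for 36–48 hours. FACS gates were set low and high (top ~1%) using anti-HA fluorescence for expression and streptavidin fluorescence for binding of the Sf9 membrane reagent. Each polyreactivity label is drawn from the gate of origin.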

Sequence | polyreactivity (PSR sort gate)
QVQHVESGGGLVQARGSLRLTCAASGLILSSNAMGWYRQAPGKERELVAAITWDGDRTYADSVKGRFTISRDNAKNTVYLQRNSLKPEDTAVYYCAADKQYYWYDWSYDYWGQGTQVTVSS | low polyreactivity
QVQLVESGGGLVQAGGSLRLSCSASGITFIYYMGWYIQAPGKERELVAAITWSGGSTYYADSVKGRFTISRDNAKNTVYLQMNSLKPEDTAVYYCAAVRRAEEYDYCGQGTQVTVSS | low polyreactivity
QVQLVESGGGLVQAGGSLRLSCAASGRTFFGYAMGWYRQAPGKEREFVAAISGSGGSTYYADSVKGRFTISRDNAKNTVYLQMNSLKPEDTAVYYCNGDYWGEYYYWGQGTQVSVSS | low polyreactivity
QVQLVESGGGLVQAGGSLRLSCAASGRIFFYYAMGWYRQAPGKEREFVAAISTSSGSTYYADSVKGRFTISRDNAKNTVYLQMNSLKPEDTAVYYCAADEVYSRGIWPVEDDYWGQGTQVTVSS | low polyreactivity
QVQLVESGGGLVQAGGSLRLSCAASGRTFYYYAMGWYRQAPGKERELVASITYYADSVKGRFTISRDNAKNTVYLQMNSLKPEDTAVYYCAAEHKYRYDYWGQGTQVTVSS | low polyreactivity
QVQLVESGGGLVQAGGSLRLSCAASGNTFFIYAMGWYRPAPGKERELVAAITYSGGGTYYADSVKGRFTISRDNAKNTVYLQMYSLKPDDTAVYYCAADFYTGWSYIYDYWGHGTQVTVSS | high polyreactivity
QVQLVESGGGLVQAGGSLRLSCAASGRTFTRNAMGWYRQAPGKERELVAVITSSGRTNYADSVKGRFTISRDNAKKTVYLQMNSLKPEDTAVYYCNKVSARYPYPLYDYWGQGTQVTVSS | high polyreactivity
QVQLVESGGGLVQAGGSLRLSCAASGRTFEKNAMGWYRQAPGKERELVASITSVGSTDYADSVKGRFTISRDNAKNTVYLQMNSLKPEDTAVYYCAKTLGSQNYDFDYWGQGTQVTVSS | low polyreactivity
QVQLVESGGGLVQAGASLRLSCAASGYIFVRYAMGWYRQAPGKEREFVAAISSSGGSTRYADSVKVRFTISRDNAKNTVYLQMNSLKPEDTAVYYCAATRVARHGSPMYYWGQGTKVTVSS | high polyreactivity
QVQLVESGGGLVQAGGSLSLSCAASGRTFVRYAMGWYRQAPGKERELVAAISRNAGRTYYADSVKGRFTISRDNAKNTVYLQMNSLKPEDTAVYYCAAPGRNLGTGFYYWGQGTQVTVSS | high polyreactivity
QVQLQESGGGLVQAGGSLRLSCAASGSIIEELDMAWYRQAPGKEREFVAAIGTGSTTYYADSVKGRFTSSRDNAKNTVYLQMNSLKPEDTAVYYCAVTYSVYLPFRYWGQGTQVTVSS | high polyreactivity
QVQLVESGGGLVQAGGSLRLSCAASGRIFYRYALGWYRQAPGKERELVAVITSSGGRTYYADSVKGRFTISRDNAKNTVYLQMNSLKPEDTAVYYCAATPVGSHYGNYYWGQGTQVTVSS | high polyreactivity
QVQLVESGGGLVQAGGSLRLSCAASGFIFRGYAMGWYRQAPGKERELVAAISRRGGSTYYADSVKGRFTISRDNAKNTVYLQMNSLKPEDTAVYYCNARIRYVYWHSYDYWGQGTQVTVSS | high polyreactivity
QVQLVESGGGLVQAGGSLRLSCAASGSTFSFNAMGWYRQAPGKERELVAAISYSDSTTYYADSVKGRFTISRDNAKNTVYLQMNSLKPEDTAVYYCAAETGPYYRFGGDYWGQGTQVTVSS | high polyreactivity
QVQLVESGGGLVQAGGSLRLSCAASGFTFGINAMGWYRQAPGKERELVAAINQSGDRTYYADSVKGRFTISRDNAKNTVYLQMNSLKPEDTAVYYCAALSTYRTWYGYWGQGTQVTVSS | high polyreactivity
QVQLVESGGGLVQAGGSLRLSCAASGYIFADYAMGWYRQAPGKEREFVARIRYRDGSTYYADSVKGRFTISRDNAKNTVYLQMNSLKPEDTAVYYCAAQLGRYSYYPMDYWGKGTQVTVSS | high polyreactivity
QVQQVESGGGLVQAGGSLRLSCAATGRTFALYAMGWYRLAPGKERELVAGITFRGGSTYYADSVKGRFTISRDNAKNTVYLQMNSLKPEDTAVYYCAAERWRWYYSWTMDYWGQGTQVTVSS | high polyreactivity
QVQLVESGGGLVQAGGSLRLSCAASGFIFGVNAMGWYRQAPGKERDLVAAITRNGGSTYYADSVKGRFTISRDNAKNTVYLQMNSLKPEDTAVYYCAKYVRRAPSTFDVDYWGQGTQVTVSS | high polyreactivity
QVQLVESGGGLVQAGGSLRLSCAPSGYIFDIYAMVWYRQAPGKERELVAGITRNGGSTYYADSVKGRFTISRDNAKNTVYLQMNSLKPEDTAVYYCAAGWITRSLYHKYYSWGQGTQVTVSS | high polyreactivity
QVQLVESGGGLVQAGGSLRLSCAASGITFHPYALGWYRQAPGKERELVARIRSTGSTNYADSVKGRFTISRDNAKNTVYLQMNSLKPEDTAVYYCAATFRTGWRPYSFYYWGQGTQVTVSS | high polyreactivity
QVQLVESGGGLVQAGGSLRLSCAASGRTFYHYTMGWSSQAPGKERELVARITRRVGSTYYADSVKGRFTISRDNTKNTVYLQMNSLKPEDTAVYYCNAKSGVYRYLLDYWGQGTQVTVTS | high polyreactivity
QVQLVESGGGLVQAGGSLRLSCAASGSIFGFNAMGWYRQAPGKERELVAAISSGGITNYADSVKGRFTISRDNAKNTVSLQMNSLKPEVTAVYYCAAASESNWSFNYWGQGTQVTVSS | low polyreactivity

Sequence | polyreactivity (PSR sort gate)
QVQLVESGGGLVQAGGSLRLSCAASGSIFDRNAMGWYRQAPGKERELVSAISRGGRTYYADSVKGRFTISRDNAKNTVYLQMNSLKPEVTAVYYCAAGYPSAWAYTTDDYWGQGTQVTVSS | low polyreactivity
QVQLVESGGGLVQAGGSLRLSCAASGRTVGWYAMGWYRQAPGKERELVAAITWRGGSTYYADSVKGRFTISRDNAKNTVYLQMTSLKPEDTAVYYCAAAAEKRSYYWGQGTQVTVSS | high polyreactivity
QVQLVESVGGLVQAGGSLRLSCAASGITSYRYTKGWYRQAPGKARELVAAITISGGRTYYGDSVKGRFTISRDNAKNTVYLQLNSLKPEDTAVYYCAAGWRSGFDYWGQGTQVTVSS | high polyreactivity
QVQLVESGGGLVQAGGSLRLSCAAAGRISVFYTMGWYRQAPGKERVLVAVIRTSGGRTNYADSVKGRFTISRDNAKNTVYLQMNSLKPEDTAVYYWDADAVIEWTEWYSAWWYYYWGQGTQVTVSS | low polyreactivity
QVQLVESGGGLVQAGGSLRLSCAASGFTFKGNAMGWYRQAPGKERELVAGISRSGRTYYADSVKGRFTISRDNAKNTVYLQMNSLKPEDTAVYYCNARNQGWASLPTMGYWGQGTQVTVSS | high polyreactivity
QVQLQESGGGLVQAGGSLRLSCAASGSISLGDNMGWYRQAPGKEREFVATISVGGITYYVDSVKGRFTISRDIAKNTVYLQMNSLKPEDTAVYYCAALDIYYFRYYYWGQGTQVTVSS | low polyreactivity
QVQLVESGGGLVQAGGSLRLSCAASGRIFYGNTMGWYRPAPGKERELVAAITGSGTSTYYADSVKGRFTISRDNAKNTVYLQMNSLKPEDTAVYYCNADRPVYVDYINGGYGYWGQGTQVTVSS | low polyreactivity
QVQIVESGGGLVQAGGSLRVSCAASGRTFSWYAMGWYRQARGKEWEIVAAIRWSGSSTYYADSVKGRFTISRDNAKNTVYLQMNSLKPEDTAVYYCAVAAGIPQRRYYYWGQGTQVTVSS | high polyreactivity
QVQLVESGGGLVQAGGSLRLSCAASGRTFRSYAMGWYRQAPGKERELVAAITRTGSTYYADSVKGRFTISRDNAKNTVYLQMNSLKPEDTAVYYCAARFVYGYDYWGQGTEVTVSS | high polyreactivity
QVQLVESGGGLVQAGGSLRLSCADSGRIFTSYVMGWYRPAPGQERELVAAITRSGGSTYYADSVKGRFTNSRDNAKNTVYLQMNSLKPEDTAVYYCIALTRRQKGGEGGGYWGQGTQVTVSS | high polyreactivity
QVQLVESGGGLVQAGGSLRLSCAASGLTLRTNSMRLYIQAPGKERELVAAISRSGVRTYYAHSVKGRFTISRDNAKNTVYLQMNSLKPEDTAVYYCNAEFSPYPYDYWGQGTQVTVSS | high polyreactivity
QVQLVESGGGLVQAGGSLRLSCAASGRTLVYNAMGWYRQAPGKERELVAAITTDGGDTYYADSVKGRFTISRDNAKNTVYLQMNSLKPEDTAVYYCAADYVALYYWYDYWGQGTQVTVSS | low polyreactivity
QVQLVESGGGLVQAGGSLRLSCAASGRIFYYYAMGWYRQAPGKERELVAAISWSGGSTYYADSVKGRFTISRDNAKNTVYLQMNSLKPEDTAVYYCAAESRKYREYYFWGQGTQVTVSS | high polyreactivity
QVHLVESGGGLVQAGGSLRLSCAASGRNFSSYAMGWYRQAPGKEWELVAAIRRGGGSTSYADSVKGRFTISRDNAKKTVYLQMNSLKPEDTAVYYCAADSPRGQVHYIGGYWGHGTQVTVSS | low polyreactivity
QVQLVESGGGLVQAGGSLRLSCAASGSIFPPYAMGWYRQAPGKERELVAAIRRGSSTYYADSVKGRFTISRDNAKNTVYLQMNSLKPEDTAVYYCAARGRYRIGPGRYGKRYDYWGQGTQVTVSS | high polyreactivity
QVQLVESGGGLVQGGGSLRLSCAASGRTLSYYAKGWYRQAPGKERELVADISWSGGSTYYADSVKGRFTISRDNAKNTVYLQMNSLKPEDTAVYYCAARVPGSIRSVGSVKQKYYYWGQGTQVTVSS | high polyreactivity
QVQLVQSVGGLVQAGGSLRLSSAASGSTFTVYAMGWYRQAPGKERELVAAISWRGGSTYYADSVKGRFTISRDNAKKTVYLQMNSLKPEDTAVYYCAADGLDIAPYGYGYWGQGTQVTVSS | low polyreactivity
QVQLEESGGCIVQAGGSHRLSCAASGRTFTLNAMGWYRQAPGKEREFVAAISNSGVRTYYADSVKGRFTISRDNAKNTVFLQMNSLKPEDTGVYYCARTYQVGDSIDDYWGQGTQVNVSS | low polyreactivity
QVQLVESGGGLVQAGGSLRLSCAASGRIFVVNDMGWYRQAPGKERELVAAINSGGRTNYADSVKGRFTISRDNAKNTVYLQMNSLKPEDTAVYYCNAKRTGPWFLHVPVYYWGQGTQVTVSS | low polyreactivity
QVHLVESGGGLVQAGGSLRLSCGASGIIFFHYAMGWYRQAPGKERELVAAITWSGGYTYYADSVKGRFTISRDNAKNTVYLQMNSLKPEDTAVYYCNAVLHRRLYDYWGQGTQVTVSS | high polyreactivity
QVQLVESGGGLVQAGGSLRLSCAASGRTFPYYAMGGYRKAPGKERELLASISRGGNTNYADSVKGRFTISRDNAKNTVYLQMNSLKPEATAVYYCAADYYLAYGSRRGGYWGQGTQVTVSS | high polyreactivity
